These results are taken from US20110223163A1 (US Dept. of Health and Human Services, published 2011).

Test [1] deals with BSA (UniProt P02769 25-607). The experiment in a line: ELISA, full-length IgG.
Test [2] addresses synthetic 10-mer peptide of γ-D-glutamic acids.

Sequence of BSA (P02769 25-607 limits assumed): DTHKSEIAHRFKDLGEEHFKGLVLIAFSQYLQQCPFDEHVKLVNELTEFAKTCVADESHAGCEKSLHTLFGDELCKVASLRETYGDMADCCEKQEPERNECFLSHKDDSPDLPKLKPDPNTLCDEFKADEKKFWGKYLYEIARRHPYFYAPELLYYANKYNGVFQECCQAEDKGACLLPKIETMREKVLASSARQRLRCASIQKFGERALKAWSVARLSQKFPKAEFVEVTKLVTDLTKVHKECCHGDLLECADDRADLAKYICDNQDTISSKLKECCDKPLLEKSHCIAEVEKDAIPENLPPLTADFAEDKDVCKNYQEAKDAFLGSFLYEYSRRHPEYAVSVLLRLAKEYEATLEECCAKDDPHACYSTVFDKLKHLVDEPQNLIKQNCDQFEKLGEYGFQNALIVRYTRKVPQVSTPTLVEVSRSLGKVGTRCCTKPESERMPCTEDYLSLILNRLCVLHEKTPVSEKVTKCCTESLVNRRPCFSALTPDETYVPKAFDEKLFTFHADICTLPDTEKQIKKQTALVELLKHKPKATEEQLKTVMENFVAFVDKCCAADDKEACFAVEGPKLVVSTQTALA

B1: anti-γDPGA chimpanzee monoclonal antibody 11D, full-length IgG with human γ1 constant regions (antibody, V domains shown)
VH: LESGGGLVKPGGSLTLSCAASGFTFSTYAMHWVRQAPEKGLEWVSTIGRSGDTLYSDSVKGRFSISRDNSKNTLYLQMNSLRAEDTAVYYCARKGYCSSTNCQSQYYFDYWGQGTLVTVS
VL: ELTQSPSSLSASVGGRVTITCRASQDVNTWLAWYQQKPGKAPKPLIYAASSLQGGVPSRFSGSGSGTDFTLTISSLQPEDFATYYCQQYKHYPLTFGGGTKVEIKR
notes: also called 11D IgG; CH11D-hG1
Consider B1, for which, in test [1], the binding result is reported as “no binding”. For the same molecule, in test [2], the dissociation constant Kd – broadly, the concentration at which binding is half-saturated – was determined as 0.082 nM; the dissociation rate constant (koff) (commonly the rate constant with which the complex falls apart) was found to be 9.04e-05 s⁻¹; the kon – broadly, the second-order rate constant of association – was 1.1e+06 M⁻¹ s⁻¹.

B2: anti-γDPGA chimpanzee monoclonal antibody 4C, full-length IgG with human γ1 constant regions (antibody, V domains shown)
VH: LEESGGGLVKPGDSLRLSCAASGFTFSVYAMHWVRQAPEKGLEWVSTIGAGGNTWHSDSVKGRYTIARDNSQNTLSLQMNSLRAEDTAVYYCVRRGYCSSTRCDSNDAFDIWGQGTMVTVS
VL: APMTQSPSSLSASVGDRVSITCRASQDINDFLAWFQQKPGKAPKRLIFRTSSLQGGVSSRFSGSGSGTEFTLTISNLRPEDFATYYCLQHSSYPPTFGQGTKLEISR
notes: also called 4C IgG; IgG1 of anti-γDPGA 4C monoclonal antibody
Take B2: the binding result in test [1] is given as “no binding”. In test [2], this molecule had a Kd of 0.55 nM, a koff of 0.0023 s⁻¹ and an on-rate constant (kon) of 4.2e+06 M⁻¹ s⁻¹.
